Experimental data published in patent publication US20200338216A1.

Target: murine PDL-1 (murine) (UniProt Q9EP73)
Assay: bead based FACS of purified EVADER vectors with fluorescent-labelled antibody

Chain of UniProt Q9EP73 (Q9EP73 19-290): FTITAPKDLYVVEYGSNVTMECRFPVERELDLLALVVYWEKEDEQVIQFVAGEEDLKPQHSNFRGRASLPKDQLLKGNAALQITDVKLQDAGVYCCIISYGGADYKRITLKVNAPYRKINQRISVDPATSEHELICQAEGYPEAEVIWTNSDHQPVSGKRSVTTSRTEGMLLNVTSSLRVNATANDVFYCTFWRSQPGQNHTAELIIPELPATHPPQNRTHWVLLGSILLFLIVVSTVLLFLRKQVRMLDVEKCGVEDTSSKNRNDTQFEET

anti-murine PDL-1 (anti-PDL-1-PE-A, Abcam catalog number ab213480) (antibody)
percent of EVADER vector particles positive (level on the surface): 75.3%
